# Key:
# Assay in all cases: SEC; size exclusion chromatography of the purified LOV constructs under dark state conditions; apparent MW compared with the expected monomer MW of 17 kDa
# [1] = target: McLOVn-TF residues 337-490 (isolated LOV domain of the Methylocystis LOV transcription factor) (Methylocystis Rockwall)
# [2] = target: Methylocystis rosea short LOV protein McLOVr (Methylocystis rosea)
# [3] = target: Methylocystis short LOV protein McLOVn (Methylocystis Rockwall)
substance,measurement,setting,value
McLOVn-TF residues 337-490 (isolated LOV domain of the Methylocystis LOV transcription factor) (domain or fragment),stoichiometry N,[1],2
Methylocystis rosea short LOV protein McLOVr (natural protein),stoichiometry N,[2],2
Methylocystis short LOV protein McLOVn (natural protein),stoichiometry N,[3],2

# Reference: PMC4416707
